Test results reported in publication PMC9601775 (Protein Science : A Publication of the Protein Society, 2022).
Substitutions are numbered along the chain they refer to. In names and notes the source's numbering stands. One block for each binder: values may come before it.

Experiments:
Test in all cases: SPR; Biacore 8K; EGFR extracellular domain immobilised on CM5 chip by amine coupling (~1000 RU); VHHs injected in two-fold serial dilutions at 30 μl/min; 25°C; PBS with 0.005% Tween20
Settings in all cases: both partners purified
[1] = target: T1, extracellular domain of epidermal growth factor receptor (EGFR), residues 1–618 (Homo sapiens (; human EGFR in …, UniProt P00533)
T1 construct: Epidermal growth factor receptor (EGFR), extracellular domain, residues 1-618; also called extracellular domain of EGFR; source: Sf9 expression system (baculovirus), purified from the culture supernatant (Ni-NTA, SEC)

[2] = target: T1, extracellular domain of epidermal …; remark: listed apart in the source
[3] = target: T1, extracellular domain of epidermal …; remark: listed apart in the source

Kd [1]: 191 nM | koff [1]: 0.137 s⁻¹ | kon [1]: 713000 M⁻¹ s⁻¹
B1: 7D12‐Vob Y42F (VHH)
VHH: EVQLVESGGGLVQPGGSLRLSCAASGRTSRSYGMGWFRQAPGKGRELVAGISWRGDSTGYADSVKGRFTISRDNAKNTLYLQMNSLRPEDTAVYYCAFAAGSAWYGTLYEYDYWGQGTLVTVSS
notes: PDB 7XL1) with the stated change; IMGT numbering; source: E. coli BL21(DE3), periplasmic fraction, purified (Ni-NTA, SEC)

Kd [1]: 38 nM | koff [1]: 0.0693 s⁻¹ | kon [1]: 1.82e+06 M⁻¹ s⁻¹
B2: 7D12‐Vob Y42F‐L52F‐F106A (VHH)
VHH: B1 VHH with L47F, F98A
notes: PDB 7XL1) with the stated changes; IMGT numbering; also called triple mutant; source: E. coli BL21(DE3), periplasmic fraction, purified (Ni-NTA, SEC)

Kd [1]: 110 nM | koff [1]: 0.0799 s⁻¹ | kon [1]: 729000 M⁻¹ s⁻¹
B3: 7D12‐Vob Y42F‐L52F (VHH)
VHH: B1 VHH with L47F
notes: PDB 7XL1) with the stated changes; IMGT numbering; source: E. coli BL21(DE3), periplasmic fraction, purified (Ni-NTA, SEC)

Kd [1]: 358 nM | koff [1]: 0.123 s⁻¹ | kon [1]: 344000 M⁻¹ s⁻¹
B4: 7D12‐Vob L52F (VHH)
VHH: B1 VHH with F37Y, L47F
notes: as for B1

Kd [2]: 1450 nM | koff [2]: 0.247 s⁻¹ | kon [2]: 169000 M⁻¹ s⁻¹
B5: 7D12‐Vob (VHH)
VHH: B1 VHH with F37Y
notes: CDRs of 7D12 grafted onto the framework regions of Vobarilizumab; PDB 7XL1; also called chimeric VHH; source: E. coli BL21(DE3), periplasmic fraction, purified (Ni-NTA, SEC)

Kd [1]: 482 nM | koff [1]: 0.152 s⁻¹ | kon [1]: 316000 M⁻¹ s⁻¹
B6: 7D12‐Vob F106A (VHH)
VHH: B1 VHH with F37Y, F98A
notes: as for B1

Kd [3]: 4.7 nM
B7: 7D12‐Vob E1Q‐Y42F‐L52F‐F106A (VHH)
VHH: B1 VHH with E1Q, L47F, F98A
notes: PDB 7XL1) with the stated changes; IMGT numbering; also called quadruple mutant; source: E. coli BL21(DE3), periplasmic fraction, purified (Ni-NTA, SEC)
